Assay results taken from patent US20190135932A1 (Pfizer, published 2019).
Values joined by “and” are separate entries in the source; they are usually repeats but may differ in a detail not shown here. Equal entries are not always repeated.

B1: human monoclonal antibody 18D8 (antibody, human IgG2, kappa, V domains shown)
VH: EVQLVESGGGLVQPGRSLRLSCAASGFTFDDYAMHWVRQAPGKGLEWVSGISWNSGSIGYADSVKGRFTISRDNAKNSLYLQMNSLRAEDTALYYCAKDQSTADYYFYYGMDVWGQGTTVTVSS
VL: EIVVTQSPATLSLSPGERATLSCRASQSVSSYLAWYQQKPGQAPRLLIYDASNRATGIPARFSGSGSGTDFTLTISSLEPEDFAVYYCQQRSNWPTFGQGTKVEIKR
B2: human monoclonal antibody 11D4 (antibody, V domains shown)
VH: EVQLVESGGGLVQPGGSLRLSCAASGFTFSSYSMNWVRQAPGKGLEWVSYISSSSSTIDYADSVKGRFTISRDNAKNSLYLQMNSLRDEDTAVYYCARESGWYLFDYWGQGTLVTVSS
VL: DIQMTQSPSSLSASVGDRVTITCRASQGISSWLAWYQQKPEKAPKSLIYAASSLQSGVPSRFSGSGSGTDFTLTISSLQPEDFATYYCQQYNSYPPTFGGGTKVEIKR
notes: IgG2 heavy chain, kappa light chain; allotypes G2(n-) and Km3; Alexa Fluor 647 conjugate was used in the species cross-reactivity FACS

What was measured:
[1] = target: T1, CD271-Ig (Alexis Biochemicals) (human, UniProt P08138 29-250); test: ELISA on coated receptor-Ig fusion protein
T1 construct: extracellular domain; Bought; also called nerve growth factor receptor (CD271)
Experimental: (§1) Maxisorb 96-well plates (Nunc, Roskilde, Denmark) were coated with 100 μl of human TNFα receptor family member fusion proteins at 0.25 μg/ml diluted in BupH™ Carbonate buffer, pH 9.4 (Pierce, Rockford, Ill.) and incubated overnight at 4° C. The selectivity receptor fusion proteins tested included CD40-Ig (Alexis Biochemicals, San Diego, Calif.), CD137-Ig (R&D Systems, Minneapolis, Minn.) and CD271-Ig (Alexis Biochemicals, San Diego, Calif.). Also included as the positive control with each assay was the OX40-Ig fusion protein (in-house construct, Bioexpress, 97/2117). Plates were then washed three times with wash buffer containing 0.05% Tween 20 (Sigma, St Louis, Mo.) diluted in PBS and blocked with 300 μl of 0.5% BSA (Sigma, St Louis, Mo.) in PBS (Sigma, St Louis, Mo.) for 1 hour at RT°. Next, the plates were washed and 100 μl/well of anti-human OX40 reactive antibodies were added to the plates at various concentrations and incubated for 1 hour at RT°. Plates were thoroughly washed three times and OX40R antibody binding was detected with a horse radish peroxidase labeled anti-human kappa chain antibody (Bethyl Laboratories, Montgomery, Tex.) at 25 ng/ml for 1 hour at RD°. Plates were then washed three times which was followed by the addition of 100 μl/well of 1-Step Turbo-TMB substrate (Pierce, Rockford, Ill.) for 30 minutes at RT. The reaction was stopped by adding an equal volume of 2M H₂ SO₄. Absorbance was read at 450 nm on a Molecular Devices Spectra Max 340 (Molecular Devices, Sunnyvale, Calif.).

[2] = target: T2, CD40-Ig (Alexis Biochemicals) (human, UniProt P25942 21-193); test: ELISA on coated receptor-Ig fusion protein
T2 construct: extracellular domain; Bought; also called CD40 receptor
Experimental: as §1

CD137-Ig (R&D Systems) [3] = target: T3, CD137-Ig (R&D Systems) (human, UniProt Q07011 24-186); test: ELISA on coated receptor-Ig fusion protein
T3 construct: extracellular domain; Bought; also called 4-1BB receptor (CD137)
Experimental: as §1

[4] = target: T4, human OX40R on activated primary human T cells (human, UniProt P43489 29-277); test: FACS saturation binding on CD3/CD28 stimulated human T cells (N = 4)
T4 construct: whole, on cells; also called CD3/CD28 stimulated T cells; human PBMC's stimulated with anti-CD3 and anti-CD28
T4 sequence (looked up): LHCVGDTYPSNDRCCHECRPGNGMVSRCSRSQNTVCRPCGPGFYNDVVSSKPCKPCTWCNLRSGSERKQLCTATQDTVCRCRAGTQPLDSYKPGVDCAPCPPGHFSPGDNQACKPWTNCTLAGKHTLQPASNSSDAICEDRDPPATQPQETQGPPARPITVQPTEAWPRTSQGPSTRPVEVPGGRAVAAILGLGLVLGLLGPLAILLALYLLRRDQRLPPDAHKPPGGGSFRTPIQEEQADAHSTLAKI
Experimental: OX40R-expressing cell lines (see below) or activated primary peripheral blood mononuclear cells (see below) were used to assess binding on both the human and cynomolgus OX40 receptors. Cells were harvested and washed (5×10⁵/tube) using wash buffer at RT°. The wash buffer consisted of PBS, 2% heat-inactivated fetal bovine serum (Hyclone, Logan, Utah) and 0.02% sodium azide (Sigma, St. Louis, Mo.). Next, 100 μl of various concentrations of antibody was added to the cells (starting at 30 ug/ml and using a 3-fold titration) diluted in wash buffer containing 0.005 mg/ml of cytocholasin B (Sigma, St. Louis, Mo.). The cells were gently rocked at RT° for 3 hours. Next, the cells were washed twice and resuspended in 0.5 ml/tube with cold wash buffer and 10,000 events were collected and analyzed using a Becton Dickinson FACSCalibur and CellQuest software (San Jose, Calif.).
Human whole blood was collected into heparinized syringes (Baxter; Deerfield, Ill.) and then immediately transferred to Sigma Accuspin tubes (Sigma, St. Louis, Mo.) for the isolation of peripheral blood mononuclear cells (PBMC) as described by the manufacturer. The PBMC were washed twice with DPBS and T lymphocytes were isolated using a T cell purification column as described by the manufacturer (R & D Systems, Minneapolis, Minn.). […]

[5] = target: cynomolgus OX40R on activated cynomolgus monkey T cells / PBMCs (cynomolgus monkey); test: cell-based or functional assay
[6] = target: T1, CD271-Ig (Alexis Biochemicals); test: ELISA on coated receptor-Ig fusion proteins, against the EC50 on the OX40R fusion protein
Experimental: as §1

[7] = target: T2, CD40-Ig (Alexis Biochemicals); test: as above
Experimental: as §1

CD137-Ig (R&D Systems) [8] = target: T3, CD137-Ig (R&D Systems); test: as above
Experimental: as §1

[9] = target: T5, commercially available fusion protein containing the extracellular domain of the murine OX40R (mouse, UniProt P47741 20-211); test: ELISA
T5 construct: extracellular domain; Bought; also called mouse OX40R fusion protein
T5 sequence (looked up): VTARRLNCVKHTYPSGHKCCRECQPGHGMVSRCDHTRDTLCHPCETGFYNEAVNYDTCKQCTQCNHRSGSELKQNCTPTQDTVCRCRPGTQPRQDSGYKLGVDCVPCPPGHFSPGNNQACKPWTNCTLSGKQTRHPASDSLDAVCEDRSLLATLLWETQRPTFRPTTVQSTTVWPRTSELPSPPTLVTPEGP

T1 sequence (P08138 29-250): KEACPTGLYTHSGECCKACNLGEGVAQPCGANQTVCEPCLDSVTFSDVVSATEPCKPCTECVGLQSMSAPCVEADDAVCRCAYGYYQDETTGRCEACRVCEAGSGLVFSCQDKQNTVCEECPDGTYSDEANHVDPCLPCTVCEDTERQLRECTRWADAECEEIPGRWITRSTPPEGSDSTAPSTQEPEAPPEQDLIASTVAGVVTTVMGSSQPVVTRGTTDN
T2 sequence (P25942 21-193): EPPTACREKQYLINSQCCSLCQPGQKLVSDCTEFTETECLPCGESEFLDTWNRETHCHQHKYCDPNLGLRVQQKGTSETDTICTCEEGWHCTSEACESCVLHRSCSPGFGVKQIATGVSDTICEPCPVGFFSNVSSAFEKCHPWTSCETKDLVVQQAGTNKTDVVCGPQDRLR
T3 sequence (Q07011 whole entry, the tested form may be a part): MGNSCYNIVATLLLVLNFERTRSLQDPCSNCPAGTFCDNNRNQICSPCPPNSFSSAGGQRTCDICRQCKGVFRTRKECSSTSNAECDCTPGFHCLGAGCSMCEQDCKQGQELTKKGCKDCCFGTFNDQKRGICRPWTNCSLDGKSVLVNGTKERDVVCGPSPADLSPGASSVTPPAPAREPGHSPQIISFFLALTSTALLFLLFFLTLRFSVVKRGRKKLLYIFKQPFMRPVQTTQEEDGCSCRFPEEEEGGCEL

| Binder | Selectivity (Binding to CD40, CD137, CD271) [1] [nM] | Selectivity (Binding to CD40, CD137, CD271) [2] [nM] | Selectivity (Binding to CD40, CD137, CD271) (CD137-Ig (R&D Systems) [3]) [nM] | EC50 [4] | EC50 of anti-CD3 induced IL-2 production by monkey cells (mean of 1:3 dilution curves, N=3) [5] [µg/mL] | fold selectivity for the OX40R over this receptor [6] [fold] | fold selectivity for the OX40R over this receptor [7] [fold] | fold selectivity for the OX40R over this receptor (CD137-Ig (R&D Systems) [8]) [fold] | binding result [9] | Selectivity (binding) [1] | Selectivity (binding) [2] | Selectivity (binding) (CD137-Ig (R&D Systems) [3]) |
| --- | --- | --- | --- | --- | --- | --- | --- | --- | --- | --- | --- | --- |
| B1 | > 700 | > 700 | > 700 | 1.06 µg/mL and 7.3 nM |  |  |  |  |  |  |  |  |
| B2 |  |  |  |  | 0.022 | > 100 | > 100 | > 100 | no binding | > 100 µg/mL and > 700 nM | > 100 µg/mL and > 700 nM | > 100 µg/mL and > 700 nM |
